Molecular target: RSV pre-F antibody (3C12)
Test: Affinity of RSV F antigen mutants by BLI, epitope Φ
Format: binding
Protocol: To investigate the affinity of the RSV F antigen mutants for antibodies specifically recognizing epitopes in a pre-fusion conformation, the affinity was determined by a bio-layer interferometry (BLI) method in this example.
• 293T cells (purchased from ATCC cell bank); • RSV pre-F antibody (3C12), epitope Φ (Novoprotein, Cat. No.: DA101); • RSV pre-F antibody (7H11), epitope Quaternary (Novoprotein, Cat. No.: DA109); • Experimental group: mRNA vaccines after screening in Example 6;
Protein sample preparation: the experimental procedure was the same as in Example 3.
The antibodies were each diluted to 10 µg/mL with a 1×PBST solution. […]
The detection was performed using a protein interaction analyzer, and the results were analyzed using Data Analysis 12.0 software to obtain the binding rate, dissociation rate, and affinity constants.
Bio-Layer interferometry (referred to as BLI) is a label-free real-time monitoring optical detection technique, mainly used for comprehensive quantitative analysis of the interaction between biomolecules and protein concentration determination. […]
In the present application, the affinity of target proteins for 2 antibodies was analyzed by a BLI method, wherein the RSV pre-F antibody (3C12) recognizes the epitope […], and the RSV pre-F antibody (7H11) recognizes the epitope Quaternary.

B1: YK-RSV-048 (protein)
chain: QNITEEFYQSTCSAVSKGYLGALRTGWYTSVITIELSNIKENKCNGTDAKVKLIKQELDKYKNAVTDLQLLMQSTPATGSGSFLGFLCGVGSAIASGVAVSKVLHLEGEVNKIKSALLSTNKAVVSLSNGVSVLTFKVLDLKNYIDKQLLPILNKQSCSIPNIETVIEFQQKNNRLLEITREFSVNAGVTTPVSTYMLTNSELLSLINDMPITNDQKKLMSNNVQIVRQQSYSIMSIIKEEVLAYVVQLPLYGVIDTPCWKLHTSPLCTTNTKEGSNICLTRTDRGWYCDNAGSVSFFPQAETCKVQSNRVFCDTMCSRTLPSEVNLCNVDIFNPKYDCKIMTSKTDVSSSVITSLGAIVSCYGKTKCTASNKNRGIIKTFSNGCDYVSNKGVDTVSVGNTLYYVNKQEGQSLYVKGEPIINFYDPLVFPSDEFDASISQVNEKINQSLAFIRKSDELLHNVNAGKSTTNIMITTIIIVIIVILLSLIAVGLLLY
**Q.** How did the Kd turn out when B1 was run?
**A.** The Kd was 0.183 nM.

B2: YK-RSV-050 (protein)
chain: QNITEEFYQSTCSAVSKGYLGALRTGWYTSVITIELSNIKENKCNGTDAKVKLIKQELDKYKNAVTDLQLLMQSTPATGSGSFLGFCLGVGSAIASGVAVSKVLHLEGEVNKIKSALLSTNKAVVSLSNGVSVLTFKVLDLKNYIDKQLLPILNKQSCSIPNIETVIEFQQKNNRLLEITREFSVNAGVTTPVSTYMLTNSELLSLINDMPITNDQKKLMSNNVQIVRQQSYSIMSIIKEEVLAYVVQLPLYGVIDTPCWKLHTSPLCTTNTKEGSNICLTRTDRGWYCDNAGSVSFFPQAETCKVQSNRVFCDTMCSRTLPSEVNLCNVDIFNPKYDCKIMTSKTDVSSSVITSLGAIVSCYGKTKCTASNKNRGIIKTFSNGCDYVSNKGVDTVSVGNTLYYVNKQEGQSLYVKGEPIINFYDPLVFPSDEFDASISQVNEKINQSLAFIRKSDELLHNVNAGKSTTNIMITTIIIVIIVILLSLIAVGLLLY
**Q.** With B2 as the molecule, how does the Kd read?
**A.** Its Kd is 0.552 nM.

— patent publication US12514920B1, “Respiratory syncytial virus mRNA vaccine, and preparation method therefor and use thereof” (Hangzhou Tianlong Pharmaceutical Co., Ltd., priority 2024, dated 2026)
